The chains are these.
B1: library; numbered along this chain (parent)
chain: MEVVDPQQLGMFTEGELMSVGMDTFIHRIDSTEVIYQPRRKRAKLIGKYLMGDLLGEGSYGKVKEVLDSETLCRRAVKILKKKKLRRIPNGEANVKKEIQLLRRLRHKNVIQLVDVLYNEEKQKMYMVMEYCVCGMQEMLDSVPEKRFPVCQAHGYFCQLIDGLEYLHSQGIVHKDIKPGNLLLTTGGTLKISDLGVAEALHPFAADDTCRTSQGSPAFQPPEIANGLDTFSGFKVDIWSAGVTLYNITTGLYPFEGDNIYKLFENIGKGSYAIPGDCGPPLSDLLKGMLEYEPAKRFSIRQIRQHSWFRKKHPPAEAPVPIPPSPDTKDRWRSMTVVPYLEDLHGADEDEDLFDIEDDIIYTQDFTVPGQVPEEEASHNGQRRGLPKAVCMNGTEAAQLSTKSRAEGRAPNPARKACSASSKIRRLSACKQQ

± gives the uncertainty stated by the source.

This data set covers variants of B1. The data set can be described thus: STK11 functional score (HeLa growth suppression), rescaled enrichment; synonymous median = 1, nonsense median = 0 (normalised score). The note with it: with HeLa; variant type: missense. How it is done:
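Deep mutational scan (TileSeq/POPCode codon randomisation) of full-length codon-optimised STK11 cDNA integrated at a Bxb1 landing pad (AAVS1) in HeLa cells. Restoring functional STK11 suppresses HeLa proliferation. Variant frequencies were measured by NGS before and after about two weeks of growth. The error-corrected enrichment log-ratio was rescaled so that synonymous median = 1 and nonsense median = 0, scores above 1 were compressed, and codon-level and three biological replicate scores were combined; error is the bootstrapped standard error. Scale: synonymous median = 1, nonsense median = 0; below 0.5 = damaging.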
In the case of MEVVDPQQLGMFTEGELMSVGMDTFIHRIDSTEVIYQPRRKRAKLIGKYLMGDLLGEGSYGKVKEVLDSETLCRRADKILKKKKLRRIPNGEANVKKEIQLLRRLRHKNVIQLVDVLYNEEKQKMYMVMEYCVCGMQEMLDSVPEKRFPVCQAHGYFCQLIDGLEYLHSQGIVHKDIKPGNLLLTTGGTLKISDLGVAEALHPFAADDTCRTSQGSPAFQPPEIANGLDTFSGFKVDIWSAGVTLYNITTGLYPFEGDNIYKLFENIGKGSYAIPGDCGPPLSDLLKGMLEYEPAKRFSIRQIRQHSWFRKKHPPAEAPVPIPPSPDTKDRWRSMTVVPYLEDLHGADEDEDLFDIEDDIIYTQDFTVPGQVPEEEASHNGQRRGLPKAVCMNGTEAAQLSTKSRAEGRAPNPARKACSASSKIRRLSACKQQ [V77D], the STK11 functional score amounted to 0.0184 ± 0.081.

MEVVDPQQLGMFTEGELMSVGMDTFIHRIDSTEVIYQPRRKRAKLIGKYLMGDLLGEGSYGKVKEVLDSETLCRRAGKILKKKKLRRIPNGEANVKKEIQLLRRLRHKNVIQLVDVLYNEEKQKMYMVMEYCVCGMQEMLDSVPEKRFPVCQAHGYFCQLIDGLEYLHSQGIVHKDIKPGNLLLTTGGTLKISDLGVAEALHPFAADDTCRTSQGSPAFQPPEIANGLDTFSGFKVDIWSAGVTLYNITTGLYPFEGDNIYKLFENIGKGSYAIPGDCGPPLSDLLKGMLEYEPAKRFSIRQIRQHSWFRKKHPPAEAPVPIPPSPDTKDRWRSMTVVPYLEDLHGADEDEDLFDIEDDIIYTQDFTVPGQVPEEEASHNGQRRGLPKAVCMNGTEAAQLSTKSRAEGRAPNPARKACSASSKIRRLSACKQQ [V77G]: the STK11 functional score turned out to be 0.0665 ± 0.079.

As for MEVVDPQQLGMFTEGELMSVGMDTFIHRIDSTEVIYQPRRKRAKLIGKYLMGDLLGEGSYGKVKEVLDSETLCRRWVKILKKKKLRRIPNGEANVKKEIQLLRRLRHKNVIQLVDVLYNEEKQKMYMVMEYCVCGMQEMLDSVPEKRFPVCQAHGYFCQLIDGLEYLHSQGIVHKDIKPGNLLLTTGGTLKISDLGVAEALHPFAADDTCRTSQGSPAFQPPEIANGLDTFSGFKVDIWSAGVTLYNITTGLYPFEGDNIYKLFENIGKGSYAIPGDCGPPLSDLLKGMLEYEPAKRFSIRQIRQHSWFRKKHPPAEAPVPIPPSPDTKDRWRSMTVVPYLEDLHGADEDEDLFDIEDDIIYTQDFTVPGQVPEEEASHNGQRRGLPKAVCMNGTEAAQLSTKSRAEGRAPNPARKACSASSKIRRLSACKQQ [A76W], the STK11 functional score is -0.171 ± 0.28.

As to MEVVDPQQLGMFTEGELMSVGMDTFIHRIDSTEVIYQPRRKRAKLIGKYLMGDLLGEGSYGKVKEVLDSETLCRRRVKILKKKKLRRIPNGEANVKKEIQLLRRLRHKNVIQLVDVLYNEEKQKMYMVMEYCVCGMQEMLDSVPEKRFPVCQAHGYFCQLIDGLEYLHSQGIVHKDIKPGNLLLTTGGTLKISDLGVAEALHPFAADDTCRTSQGSPAFQPPEIANGLDTFSGFKVDIWSAGVTLYNITTGLYPFEGDNIYKLFENIGKGSYAIPGDCGPPLSDLLKGMLEYEPAKRFSIRQIRQHSWFRKKHPPAEAPVPIPPSPDTKDRWRSMTVVPYLEDLHGADEDEDLFDIEDDIIYTQDFTVPGQVPEEEASHNGQRRGLPKAVCMNGTEAAQLSTKSRAEGRAPNPARKACSASSKIRRLSACKQQ [A76R], the STK11 functional score is -0.417 ± 0.081.

MEVVDPQQLGMFTEGELMSVGMDTFIHRIDSTEVIYQPRRKRAKLIGKYLMGDLLGEGSYGKVKEVLDSETLCRRYVKILKKKKLRRIPNGEANVKKEIQLLRRLRHKNVIQLVDVLYNEEKQKMYMVMEYCVCGMQEMLDSVPEKRFPVCQAHGYFCQLIDGLEYLHSQGIVHKDIKPGNLLLTTGGTLKISDLGVAEALHPFAADDTCRTSQGSPAFQPPEIANGLDTFSGFKVDIWSAGVTLYNITTGLYPFEGDNIYKLFENIGKGSYAIPGDCGPPLSDLLKGMLEYEPAKRFSIRQIRQHSWFRKKHPPAEAPVPIPPSPDTKDRWRSMTVVPYLEDLHGADEDEDLFDIEDDIIYTQDFTVPGQVPEEEASHNGQRRGLPKAVCMNGTEAAQLSTKSRAEGRAPNPARKACSASSKIRRLSACKQQ [A76Y]: the STK11 functional score was determined as 0.13 ± 0.083.

With MEVVDPQQLGMFTEGELMSVGMDTFIHRIDSTEVIYQPRRKRAKLIGKYLMGDLLGEGSYGKVKEVLDSETLCRRVVKILKKKKLRRIPNGEANVKKEIQLLRRLRHKNVIQLVDVLYNEEKQKMYMVMEYCVCGMQEMLDSVPEKRFPVCQAHGYFCQLIDGLEYLHSQGIVHKDIKPGNLLLTTGGTLKISDLGVAEALHPFAADDTCRTSQGSPAFQPPEIANGLDTFSGFKVDIWSAGVTLYNITTGLYPFEGDNIYKLFENIGKGSYAIPGDCGPPLSDLLKGMLEYEPAKRFSIRQIRQHSWFRKKHPPAEAPVPIPPSPDTKDRWRSMTVVPYLEDLHGADEDEDLFDIEDDIIYTQDFTVPGQVPEEEASHNGQRRGLPKAVCMNGTEAAQLSTKSRAEGRAPNPARKACSASSKIRRLSACKQQ [A76V], the STK11 functional score came out at 1.06 ± 0.077.

On to MEVVDPQQLGMFTEGELMSVGMDTFIHRIDSTEVIYQPRRKRAKLIGKYLMGDLLGEGSYGKVKEVLDSETLCRRSVKILKKKKLRRIPNGEANVKKEIQLLRRLRHKNVIQLVDVLYNEEKQKMYMVMEYCVCGMQEMLDSVPEKRFPVCQAHGYFCQLIDGLEYLHSQGIVHKDIKPGNLLLTTGGTLKISDLGVAEALHPFAADDTCRTSQGSPAFQPPEIANGLDTFSGFKVDIWSAGVTLYNITTGLYPFEGDNIYKLFENIGKGSYAIPGDCGPPLSDLLKGMLEYEPAKRFSIRQIRQHSWFRKKHPPAEAPVPIPPSPDTKDRWRSMTVVPYLEDLHGADEDEDLFDIEDDIIYTQDFTVPGQVPEEEASHNGQRRGLPKAVCMNGTEAAQLSTKSRAEGRAPNPARKACSASSKIRRLSACKQQ [A76S], for which the STK11 functional score stood at 1.12 ± 0.2.
